In the RNAGym collection of RNA variant scans (doi:10.7554/elife.80360):

B1: HDV Ribozyme (parent)
chain: GGCCGGCAUGGUCCCAGCCUCCUCGCUGGCGCCGGCUGGGCAACAUUCCGAGGGGACCGUCCCCUCGGUAAUGGCGAAUGGGACCCA

Variants of: B1
Assay: self-cleavage, relative activity (ratio to wild type); higher = more cleavage; co-transcriptional

| Variant | self-cleavage |
| --- | --- |
| U47C G74U | 0.633 |
| C75A U79A | 0.256 |
| C24U A83G | 0.394 |
| G11C A43C | 0 |
| G53C A77U | 0.639 |
| C57U A83C | 0.665 |
| C58G A87U | 0.897 |
| G35C G52U | 0.318 |
| U20A G76C | 0 |
| C21A U60A | 0.0361 |
| U20G G76U | 0.388 |
| G39C C61G | 0.196 |
| G6C C66G | 0.332 |
| U23G A87U | 0.715 |
| C4G A8C | 0.0898 |
| G1C G25C | 0 |
| C18G U60C | 0.0692 |
| G39U G82C | 0.168 |
| U20C A78U | 0.111 |
| U20G A71U | 0.151 |
| C21U A51G | 0.228 |
| G5U G52U | 0.277 |
| G68U C75A | 0.234 |
| C21A G40A | 0.0647 |

| Variant | self-cleavage |
| --- | --- |
| G25U C63G | 0.203 |
| C41U A45U | 0.884 |
| A43C G59A | 0.441 |
| G31A G52A | 0.46 |
| G35U G76C | 0.62 |
| C66A U79C | 0.582 |
| C4A G81A | 0.0468 |
| C49U G50U | 0.941 |
| C48A G55A | 0.972 |
| U9G G17U | 0.415 |
| C7G U27C | 0.151 |
| G1U G68A | 0.496 |
| C24U C85G | 0.629 |
| C4A U27A | 0.189 |
| C7U U65C | 0.914 |
| G25A C58G | 0.111 |
| G55A A83G | 0.919 |
| C33G U79G | 0.0665 |
| C14A C41A | 0.734 |
| U60A G76U | 1.01 |
| C15A G54A | 0.504 |
| C30G C48G | 0.119 |
| G6A G82A | 0.252 |
| G29U C85A | 0.0941 |

| Variant | self-cleavage |
| --- | --- |
| A8C G82C | 0.0923 |
| G73U U79C | 0.169 |
| U20C G38U | 0 |
| C15A G25A | 0.0504 |
| U37A G82U | 0.166 |
| G31U G52U | 0.492 |
| C58G G81A | 0.243 |
| U9G C36A | 0.401 |
| U37A A43C | 0.0723 |
| G40U G59U | 0.732 |
| C41A U69C | 0.898 |
| C44A G50C | 0.702 |
| C22A U72A | 0.0665 |
| C22A U72G | 0.332 |
| U72C A77C | 0.246 |
| C18U G53A | 0.639 |
| G5C U37C | 0.161 |
| G11U A71C | 0.405 |
| G34A G55C | 0.141 |
| C14G G28A | 0.0415 |
| G54U G55A | 1.01 |
| A16U A42C | 0.262 |
| G11A C14A | 0.148 |
| G39A G50A | 0.445 |

| Variant | self-cleavage |
| --- | --- |
| G10A C19U | 0.0326 |
| U46C G76C | 0.415 |
| C30A U79G | 0.256 |
| C7A G76A | 0.868 |
| C30U U46A | 0.369 |
| C48G G82U | 0.284 |
| G29A G38C | 0.0292 |
| C3U C62G | 0.415 |
| C32A G82A | 0.0361 |
| G28U U46A | 0.111 |
| C33U U65A | 0.739 |
| C3U G73A | 0.366 |
| C24U C48A | 0.692 |
| G31U C85G | 0.481 |
| C24G G80A | 0.0791 |
| C21U G40C | 0.166 |
| U20G A42U | 0 |
| G5U C36A | 0.208 |
| G1U C7U | 0.269 |
| C49U C64A | 0.739 |
| G2C G50U | 0.0594 |
| U12G G34A | 0.0791 |
| C26U G74U | 0.777 |
| C49U C63A | 1 |

| Variant | self-cleavage |
| --- | --- |
| C44G U69A | 0.657 |
| C21G A43G | 0.128 |
| U46G C85G | 0.665 |
| G35U C36G | 0.104 |
| U46C U47G | 0.703 |
| C26U U47C | 1.02 |
| C14G G53C | 0.727 |
| C21A C66A | 0.0755 |
| G74A C86A | 0.537 |
| C41U A56C | 1.04 |
| C66U A77C | 0.34 |
| G17A U46A | 0.308 |
| G1U G35A | 0.192 |
| A45G U69A | 0.895 |
| G6U C49A | 0.582 |
| C19U C84U | 0.0811 |
| G29A G74A | 0.0773 |
| U60G U79C | 0.203 |
| G11A C22G | 0.0193 |
| C13G C49U | 0 |
| U47A G76U | 0.742 |
| U69A G73A | 0.619 |
| G29A C66G | 0.204 |
| G38C U65C | 0.391 |

| Variant | self-cleavage |
| --- | --- |
| G2C U20G | 0 |
| C49A U69G | 1.33 |
| G2C C13U | 0.153 |
| G5A C14G | 0.0639 |
| G50A U60A | 0.776 |
| G6A G68A | 0.704 |
| C4A G6U | 0.0791 |
| G54U C85U | 1.02 |
| C66U A78G | 0.69 |
| U47A A83G | 0.734 |
| C4A U79C | 0 |
| G10C G76U | 1.16 |
| U37A G40A | 0.305 |
| G25U G76A | 0 |
| U47G G55U | 1.07 |
| C21U G34U | 0.0354 |
| C7A A83U | 0.0426 |
| C24G C36G | 0.0923 |
| C3G C75U | 0.0863 |
| C48A A56U | 1.03 |
| G34C C48A | 0.161 |
| C14U C36G | 0.322 |
| G1U U79A | 0.178 |
| G1U U79C | 0.332 |

| Variant | self-cleavage |
| --- | --- |
| G68A U69G | 0.917 |
| G74A G82U | 0.125 |
| C44U A45G | 0.739 |
| A56G C86A | 0.718 |
| C44A A87U | 0.686 |
| G28A A56C | 0 |
| C22A A51G | 0.457 |
| C33G A42G | 0.0665 |
| G39C C48A | 0.125 |
| U23G C48U | 0.731 |
| C26G U65C | 1.16 |
| G6A C7A | 0.185 |
| G40A C62G | 0.432 |
| C21A C32G | 0.0426 |
| U69C A78U | 0.375 |
| G55C A83U | 0.575 |
| C30U G31A | 0.168 |
| C49U A78U | 0.437 |
| C14A U20A | 0 |
| G31C C86G | 0.188 |
| C41G U65C | 0.745 |
| C32U U37C | 1.29 |
| C18G G67A | 0.101 |
